The results in this text go back to PMC8041205, “TcpC inhibits toll-like receptor signaling pathway by serving as an E3 ubiquitin ligase that promotes degradation of myeloid differentiation factor 88” (PLoS Pathogens, 2021).

Assay [1] has as its target T1, recombinant TcpC (Toll/interleukin-1 receptor domain-containing protein encoded by E. coli) (uropathogenic E. coli (UPEC), UniProt A0A0H2V8B5 1-307).
T1 construct: TcpC, TIR domain-containing virulence factor of uropathogenic E. coli; called 'the full length rTcpC protein'; predicted TIR domain 171-304 aa; Only the vector pET42a is named; Depending on the cloning sites it may also add an N-terminal GST and S-tag; CFT073 is surmised; also called rTcpC; rTcpC prototype; source: E. coli BL21DE3 transformed with pET42a-tcpc, purified, LPS-free
Description: SPR; 1 nM UBE2D1 cross-linked on an activated CM5 chip; 0.05-0.8 nM rTcpC in PBS flowed over; Biacore T200. Conditions: both partners purified.

Assay [2] has as its target T1, recombinant TcpC (Toll/interleukin-1 …). Briefly: ITC; 1 uM rTcpC in PBS in the titration pool, 0.1 uM UBE2D1 or rMyD88 in PBS in the sample pool; VP-ITC microcalorimeter. Conditions: both partners purified.

B1: UBE2D1 (R&D) (enzyme)
chain: not shown
notes: UBE2D1 bought from R&D; No catalogue number is printed, so the species and construct of the bought protein are unknown; source: bought: R&D
As to B1, the Kd was 17.2 nM in assay [1] and 763 nM in assay [2].
